Data on one molecule can be found in article PMC8278646 (Microbial Cell Factories, 2021).

For assay [1], the target named is T1, lysozyme from chicken egg white (chicken, UniProt P00698).
T1 construct: lysozyme C from chicken egg white; source: bought: Sigma-Aldrich
As to the kind of experiment: ELISA; antigen coated on MaxiSorp plates (5 ug/mL, carbonate buffer pH 9.6); antibody fragments purified from culture supernatant by cobalt-based immunoprecipitation, serially diluted; detection by anti-6x-His-tag antibody, OD450; room temperature. To be noted: both partners purified. (An ELISA detects its analyte on a solid surface through an enzyme-linked reagent.)

Assay [2] has as its target T2, lysozyme from chicken egg white (Lyz, with C-FLAG-tag) (chicken, UniProt P00698).
T2 construct: lysozyme from chicken egg white, synthesised codon-optimised gene with an alpha-factor leader; band of 15 kDa; probably the mature lysozyme behind the leader; A spacer EEGEPK may stand at the N-terminus; source: S. cerevisiae, secreted with alpha-factor leader; culture supernatant concentrated eight times; not shown: FLAG, C-terminal, kept
Briefly: pull-down; Nan-His6 from culture supernatant held on cobalt-based Dynabeads and washed; supernatant with Lyz-FLAG (concentrated eight times) added in pull-down buffer (sodium phosphate pH 7.4, NaCl, Tween-20), 4 C, 30 min; imidazole elution; SDS-PAGE and anti-FLAG western blot. Particulars: one partner purified. A general note: A western blot detects proteins with antibodies after separation by electrophoresis.

T1 sequence (P00698 19-147): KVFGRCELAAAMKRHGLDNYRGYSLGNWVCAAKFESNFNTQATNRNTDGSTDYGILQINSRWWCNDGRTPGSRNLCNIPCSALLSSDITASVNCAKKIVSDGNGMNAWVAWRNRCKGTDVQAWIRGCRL
T2 sequence (P00698 19-147): as above

B1: Nanobody (Nan, Camelid), single V-type domain against lysozyme (VHH)
VHH: DVQLQASGGGSVQAGGSLRLSCAASGYTIGPYCMGWFRQAPGKEREGVAAINMGGGITYYADSVKGRFTISQDNAKNTVYLLMNSLEPEDTAIYYCAADSTIYASYYECGHGLSTGGYGYDSWGQGTQVTVSS
notes: camelid VhH against lysozyme, 17 kDa; also called VhH; source: S. cerevisiae HA (also LA, MA), secreted with alpha-factor leader; used as culture supernatant and purified from it by cobalt-based immunoprecipitation; not shown: His6, C-terminal, kept
On to B1, for which the binding result in assay [1] and in assay [2] was “binds” throughout.
